The target of the assay is sodium taurocholate co-transporting receptor (NTCP), expressed on HepG2 cells (human) (UniProt Q14973). As to the kind of experiment: cell-based or functional assay.
Sequence of UniProt Q14973 (Q14973 whole entry): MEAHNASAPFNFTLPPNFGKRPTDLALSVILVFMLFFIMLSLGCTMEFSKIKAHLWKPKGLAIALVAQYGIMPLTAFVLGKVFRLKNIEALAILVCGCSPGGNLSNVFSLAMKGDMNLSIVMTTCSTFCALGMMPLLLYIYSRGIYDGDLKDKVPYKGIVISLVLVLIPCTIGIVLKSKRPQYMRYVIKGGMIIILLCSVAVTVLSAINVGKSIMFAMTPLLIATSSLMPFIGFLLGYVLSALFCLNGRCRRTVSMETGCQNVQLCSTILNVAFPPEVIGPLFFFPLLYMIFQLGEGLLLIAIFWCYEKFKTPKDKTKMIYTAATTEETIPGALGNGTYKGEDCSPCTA

In the case of “CAR-PreS1 construct (signal peptide-PreS1-CD8 hinge-CD8 Transmembrane-CD28-4-1BB-CD3zeta-T2A-EGFP), expressed on T cells”, the IFN gamma expression of CAR-PreS1 T cells co-cultured with HepG2 cells expressing or lacking NTCP was found to be 3 fold and the degranulation (CD107a expression) of CAR-PreS1 T cells co-cultured with HepG2 cells expressing or lacking NTCP is 2 fold.

(Values after patent publication US20220152108A1.)
